Like-named read-outs stand apart in the source and are kept apart here.

Assay [1] concerns the target T1, mouse intermediate-affinity IL-2R (IL-2Rβ + IL-2Rγ) on murine splenocytes (CD8+ T cells and NK cells) (mouse) (UniProt P16297).
T1 sequence 1: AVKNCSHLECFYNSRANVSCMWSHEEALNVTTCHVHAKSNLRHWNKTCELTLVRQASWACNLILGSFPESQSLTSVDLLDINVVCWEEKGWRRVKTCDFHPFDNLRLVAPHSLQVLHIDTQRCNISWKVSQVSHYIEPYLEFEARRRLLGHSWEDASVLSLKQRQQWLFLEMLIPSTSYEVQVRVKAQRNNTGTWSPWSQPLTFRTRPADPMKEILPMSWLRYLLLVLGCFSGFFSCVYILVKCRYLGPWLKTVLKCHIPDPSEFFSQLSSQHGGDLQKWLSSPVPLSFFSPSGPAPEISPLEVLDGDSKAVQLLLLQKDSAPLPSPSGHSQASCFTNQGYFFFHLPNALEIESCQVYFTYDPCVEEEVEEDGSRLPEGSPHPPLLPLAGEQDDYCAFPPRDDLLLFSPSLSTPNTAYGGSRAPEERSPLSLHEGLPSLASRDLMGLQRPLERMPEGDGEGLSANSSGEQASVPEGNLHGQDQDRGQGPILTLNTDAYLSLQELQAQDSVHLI
T1 sequence 2: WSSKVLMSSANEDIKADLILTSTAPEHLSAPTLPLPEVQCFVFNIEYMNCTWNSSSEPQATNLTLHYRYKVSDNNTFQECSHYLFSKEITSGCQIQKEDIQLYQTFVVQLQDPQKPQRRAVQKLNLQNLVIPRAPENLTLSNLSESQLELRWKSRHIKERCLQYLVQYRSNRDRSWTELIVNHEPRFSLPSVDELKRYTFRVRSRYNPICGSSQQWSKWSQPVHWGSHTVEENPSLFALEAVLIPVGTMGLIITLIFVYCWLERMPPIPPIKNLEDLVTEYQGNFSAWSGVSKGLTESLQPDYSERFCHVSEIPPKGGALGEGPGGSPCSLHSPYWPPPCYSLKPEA

In assay [2] the target is T2, human intermediate-affinity IL-2 receptor complex, IL-2 CD122/CD132 (β/γ), on cells (human, UniProt P14784 27-551; P31785 23-369).
T2 sequence (looked up) 1: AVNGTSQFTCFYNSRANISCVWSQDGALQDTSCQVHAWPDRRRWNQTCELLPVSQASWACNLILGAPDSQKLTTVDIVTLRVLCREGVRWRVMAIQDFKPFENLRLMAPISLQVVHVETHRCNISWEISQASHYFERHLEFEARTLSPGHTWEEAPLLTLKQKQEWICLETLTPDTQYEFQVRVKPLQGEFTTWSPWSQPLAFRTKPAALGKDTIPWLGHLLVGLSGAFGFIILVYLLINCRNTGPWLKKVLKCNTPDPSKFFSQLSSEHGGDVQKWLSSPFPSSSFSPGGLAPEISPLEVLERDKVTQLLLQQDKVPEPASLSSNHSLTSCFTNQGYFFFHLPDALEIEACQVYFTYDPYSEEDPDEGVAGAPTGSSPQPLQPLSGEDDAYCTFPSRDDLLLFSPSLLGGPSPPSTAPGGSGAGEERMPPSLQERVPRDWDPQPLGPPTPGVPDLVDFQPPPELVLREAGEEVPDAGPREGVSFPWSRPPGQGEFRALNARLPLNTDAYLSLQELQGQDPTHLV
T2 sequence (looked up) 2: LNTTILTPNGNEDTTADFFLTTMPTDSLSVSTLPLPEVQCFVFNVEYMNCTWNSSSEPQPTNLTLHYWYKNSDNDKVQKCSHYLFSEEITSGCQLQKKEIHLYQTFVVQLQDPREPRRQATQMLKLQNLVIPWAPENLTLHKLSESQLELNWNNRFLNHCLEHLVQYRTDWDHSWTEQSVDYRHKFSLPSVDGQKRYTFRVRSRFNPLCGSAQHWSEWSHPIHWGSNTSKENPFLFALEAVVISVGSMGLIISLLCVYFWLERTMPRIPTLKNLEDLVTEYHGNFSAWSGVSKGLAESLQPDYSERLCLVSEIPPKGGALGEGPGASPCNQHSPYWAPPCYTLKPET
The assay can be described thus: cell-based or functional assay.

For assay [3], the target named is T3, human high-affinity IL-2 receptor complex, IL-2 CD25/CD122/CD132 (α/β/γ), on cells (human, UniProt P01589 22-272; P14784 27-551; P31785 23-369).
T3 sequence (looked up) 1: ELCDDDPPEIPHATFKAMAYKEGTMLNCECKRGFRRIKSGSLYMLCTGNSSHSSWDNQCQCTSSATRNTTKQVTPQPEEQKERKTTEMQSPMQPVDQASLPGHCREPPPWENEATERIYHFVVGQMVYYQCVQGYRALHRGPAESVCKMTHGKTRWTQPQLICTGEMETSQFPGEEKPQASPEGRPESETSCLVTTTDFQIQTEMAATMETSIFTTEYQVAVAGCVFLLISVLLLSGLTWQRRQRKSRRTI
T3 sequence (looked up) 2: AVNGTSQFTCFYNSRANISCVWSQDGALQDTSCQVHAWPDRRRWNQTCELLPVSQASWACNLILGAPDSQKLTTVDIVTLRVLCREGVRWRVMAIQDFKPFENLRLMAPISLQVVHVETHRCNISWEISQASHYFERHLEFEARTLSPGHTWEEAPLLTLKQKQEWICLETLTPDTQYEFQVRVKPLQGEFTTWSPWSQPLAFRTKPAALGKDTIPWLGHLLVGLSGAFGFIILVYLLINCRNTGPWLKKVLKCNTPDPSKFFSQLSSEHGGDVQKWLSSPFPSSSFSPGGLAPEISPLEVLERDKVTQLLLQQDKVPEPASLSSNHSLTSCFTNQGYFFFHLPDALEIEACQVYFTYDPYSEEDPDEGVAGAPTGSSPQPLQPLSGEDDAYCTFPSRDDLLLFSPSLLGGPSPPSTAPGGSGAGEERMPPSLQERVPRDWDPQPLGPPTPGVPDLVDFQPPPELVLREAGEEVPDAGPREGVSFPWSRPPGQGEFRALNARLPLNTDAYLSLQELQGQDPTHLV
T3 sequence (looked up) 3: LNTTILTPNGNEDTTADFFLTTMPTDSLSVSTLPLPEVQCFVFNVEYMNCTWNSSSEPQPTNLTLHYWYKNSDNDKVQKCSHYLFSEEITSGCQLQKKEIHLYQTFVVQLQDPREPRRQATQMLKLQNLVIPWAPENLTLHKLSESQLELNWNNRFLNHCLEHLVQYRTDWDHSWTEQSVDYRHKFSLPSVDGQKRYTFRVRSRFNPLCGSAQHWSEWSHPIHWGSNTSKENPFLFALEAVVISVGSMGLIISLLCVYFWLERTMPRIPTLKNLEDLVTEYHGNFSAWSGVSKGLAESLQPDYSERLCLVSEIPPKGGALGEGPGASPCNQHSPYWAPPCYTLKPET
The assay can be described thus: cell-based or functional assay.

Assay [4] deals with T2, human intermediate-affinity IL-2 …. The assay can be described thus: cell-based or functional assay. The source holds these as a separate data set.
Assay [5] has as its target T3, human high-affinity IL-2 receptor …. The assay can be described thus: cell-based or functional assay. This is another data set of the same source.
Assay [6] concerns the target T2, human intermediate-affinity IL-2 …. Briefly: cell-based or functional assay. The source holds these as a separate data set.
The target in assay [7] is T4, human IL-2 receptor beta (IL-2Rβ, CD122), purified soluble (human, UniProt P14784 27-240).
T4 construct: also called hILR2β (CD122); human IL-2Rβ
T4 sequence (looked up): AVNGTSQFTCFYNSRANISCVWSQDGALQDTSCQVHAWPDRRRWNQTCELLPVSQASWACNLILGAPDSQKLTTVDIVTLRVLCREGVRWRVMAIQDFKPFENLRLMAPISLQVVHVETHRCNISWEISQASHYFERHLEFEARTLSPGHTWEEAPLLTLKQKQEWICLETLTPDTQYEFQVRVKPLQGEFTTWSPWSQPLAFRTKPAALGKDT
Briefly: SPR (Biacore 8K, 25 C), CD122 amine-coupled on CM5 chip, Fc-IL2 variant as analyte, 1:1 Langmuir fit.

Assay [8] concerns the target T2, human intermediate-affinity IL-2 …. The assay can be described thus: cell-based or functional assay. This is another data set of the same source.
Assay [9] addresses T3, human high-affinity IL-2 receptor …. The assay can be described thus: cell-based or functional assay. The source holds these as a separate data set.

“human IL-2 glycovariant hIL-2gv1 (R38N, L40T, K43N, Y45T), secreted by virus-infected HeLa cells (from UniProt P60568 21-153) (ligand)”: the EC50 (read off the curve), pSTAT5 MFI, murine splenocyte NK cells in assay [1] was 20 ng/mL.

As to “human IL-2 glycovariant 2 hIL-2gv2 (K43N, Y45T, L72N, Q74T), secreted by virus-infected HeLa cells (from UniProt P60568 21-153) (ligand)”, the EC50 (read off the curve), pSTAT5 MFI, murine splenocyte NK cells in [1] was 20 ng/mL.

B1: Fc-IL2-R38N:L40T-K43N:Y45T (Fc fusion)
chain: GGGGSGGGGSAPTSSSTKKTQLQLEHLLLDLQMILNGINNYKNPKLTNMTTFNFTMPKKATELKHLQCLEEELKPLEEVLNLAQSKNFHLRPRDLISNINVIVLELKGSETTFMCEYADETATIVEFLNRWITFCQSIISTLT
Broadly, the Kd is the concentration at which binding is half-saturated. Low values mean tighter binding, high ones weaker binding. As usually defined, the koff is a measure of how fast the partners let go of each other. Higher therefore signals fast dissociation. One may read the kon as the second-order rate constant of association. A higher kon goes with faster complex formation. Turning to B1, the “EC50, pSTAT5 induction in HH T cells (ELISA)” value in assay [2] is 218 nM. In assay [3], the “EC50, pSTAT5 induction in iTreg cells (ELISA)” value was determined as 14.1 nM. Moreover, the “EC50 (read off the curve), pSTAT5 MFI in NK cells of hPBMC” value (“EC50 … in NK cells of hPBMC” for short) in assay [4] is approximately 8 nM. The “EC50 (read off the curve), pSTAT5 MFI in Treg cells of hPBMC” value (from here on “EC50 … in Treg cells of hPBMC”) in [5] was approximately 20 nM. For the same molecule, the “EC50 … in NK cells of hPBMC” value in [6] is approximately 8 nM. In addition, in [7], the Kd came to 3.54 µM, the koff was 0.292 s⁻¹ and the kon is 82600 M⁻¹ s⁻¹.

B2: Fc-IL2-T41N:K43T-E62N:K64T (Fc fusion)
chain: GGGGSGGGGSAPTSSSTKKTQLQLEHLLLDLQMILNGINNYKNPKLTRMLNFTFYMPKKATELKHLQCLEENLTPLEEVLNLAQSKNFHLRPRDLISNINVIVLELKGSETTFMCEYADETATIVEFLNRWITFCQSIISTLT
For the molecule B2, the “EC50 … in NK cells of hPBMC” value in assay [8] is approximately 6 nM. The “EC50 … in Treg cells of hPBMC” value in [9] is approximately 20 nM.

B3: Fc-IL2-T41N:K43T-L72N:Q74T (Fc fusion)
chain: GGGGSGGGGSAPTSSSTKKTQLQLEHLLLDLQMILNGINNYKNPKLTRMLNFTFYMPKKATELKHLQCLEEELKPLEEVLNNATSKNFHLRPRDLISNINVIVLELKGSETTFMCEYADETATIVEFLNRWITFCQSIISTLT
For B3, the “EC50 … in NK cells of hPBMC” value in [8] is approximately 6 nM. For the same molecule, in assay [9], the “EC50 … in Treg cells of hPBMC” value was approximately 20 nM.
